± gives the uncertainty stated by the source.
Assay: protein stability index of a GFP-peptide fusion (yeast GPS) (PSI 1-4); higher = more stable; sorted into four equal gates, so the index is relative within each strain
In short: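 Plasmids in a pooled yeast library fused tiled 17-residue yeast protein peptides downstream of GFP and also expressed Cherry. Mid-log cultures grown without leucine were sorted into four equal gates by GFP/Cherry fluorescence ratio. Each gate's plasmids were PCR-amplified and Illumina-sequenced, and reads were matched to strains by barcodes. The protein stability index is derived by multiplying each gate's read frequency by its gate number and summing the results.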

Sequence	protein stability index (doa10∆)	protein stability index (pdr5∆)	protein stability index (san1∆)	protein stability index (ubr1∆)
LEKISSSNKDLEDEKMK [SMC4]	3.31 ± 0.079	3.15 ± 0.093	3.23 ± 0.038	3.26 ± 0.077
RRYDRKQSGFGGQTKPV [RPL42A]	3.08 ± 0.084	3.03 ± 0.066	2.88 ± 0.056	3.148 ± 0.029
TEAGFFAIRDDRDHINP [RPT4]	2.49 ± 0.08	2.99 ± 0.072	3.12 ± 0.058	3.27 ± 0.045
GIFEKAKAKAVTSKVRN [YMR153W/NUP53]	2.24 ± 0.1	2.59 ± 0.26	2.51 ± 0.15	2.38 ± 0.085
QWFLQYQNQFVEFCRNI [YML103C/NUP188]	2.48 ± 0.17	1.86 ± 0.12	1.89 ± 0.17	2.24 ± 0.1
LASPEVKVHMDSETSDP [DIS3]	3.09 ± 0.082	3.38 ± 0.071	3.03 ± 0.071	3.12 ± 0.051
GKKLTDEINTAQDKWHL [RET1]	3.22 ± 0.1	3.18 ± 0.084	3.09 ± 0.054	2.95 ± 0.13
LAKIKEEEMAPYYKYLC [RPN7]	1.28 ± 0.091	1.74 ± 0.25		1.37 ± 0.2
FICSIIQTVVISLLALP [YML031W/NDC1]	1.43 ± 0.11	1.36 ± 0.076	1.34 ± 0.11	2.12 ± 0.11
LLVIGGNQRKILQYSRT [YJR042W/NUP85]	1.86 ± 0.091	2.27 ± 0.096	1.46 ± 0.14	1.4 ± 0.072
QQRIVSAYEASMVYSNV [RRP4]	2.32 ± 0.062	2.62 ± 0.05	2.62 ± 0.045	2.33 ± 0.046
VPKHMLDKLDEILYYQI [AAR2]	2.91 ± 0.069	3 ± 0.099	2.95 ± 0.076	3.17 ± 0.063
STGLKSASDALKGRVVE [RPS1A]	3.29 ± 0.078	3.31 ± 0.071	3.48 ± 0.044	3.37 ± 0.084
KLKYHDFLRKATAFNKT [RPL16A]	1.16 ± 0.13	1.24 ± 0.14		1.22 ± 0.15
PIGRHEELLAQYESQAP [SWP82]	2.35 ± 0.057	2.25 ± 0.063	2.07 ± 0.1	2.07 ± 0.037
SEGISEATREVFGISKT [ITC1]		3.42 ± 0.16		3.28 ± 0.2
VVAKKDFNQAKHEEIDT [RPS10A]	3.51 ± 0.2	2.54 ± 0.19	3.22 ± 0.099	3.09 ± 0.081
LWSGKQILSVAIPNGIH [RPO21]	1.57 ± 0.066	1.59 ± 0.051	1.37 ± 0.088	1.71 ± 0.087
DMIKCFLPKLNSVRNSL [NUT1]	2.52 ± 0.053	2.48 ± 0.089	2.47 ± 0.075	2.18 ± 0.035
SRPEYSCTFWSDKESNA [YJL039C/NUP192]	2.08 ± 0.063	2.5 ± 0.061	2.51 ± 0.071	2.57 ± 0.072

Sequence	protein stability index (doa10∆)	protein stability index (pdr5∆)	protein stability index (san1∆)	protein stability index (ubr1∆)
GARFDDGAGGDNEVQRT [RPT1]	3.58 ± 0.2	3.4 ± 0.26	3.47 ± 0.24	3.52 ± 0.083
LVLLNGRLRNKSHKQTI [RPP1]	2.65 ± 0.088	2.85 ± 0.059	2.98 ± 0.047	2.97 ± 0.061
MAKTLKDLDGWQVIITD [SIR3]	1.65 ± 0.16	2.4 ± 0.12	2.81 ± 0.14	2.71 ± 0.14
DSAAIIAATGLNQINGL [GRR1]	2.85 ± 0.096	2.83 ± 0.089	2.79 ± 0.083	2.96 ± 0.073
QRKTVNSDDILSLHENY [POP1]	2.55 ± 0.053	2.65 ± 0.069	2.54 ± 0.068	2.92 ± 0.039
ALPSTHKVTQKKDIKIG [SIR4]	2.36 ± 0.099	2.46 ± 0.071	2.56 ± 0.07	2.77 ± 0.067
REPRVVSALQMLKQHLF [PUP1]	3.1 ± 0.13	3.05 ± 0.094	3.02 ± 0.066	2.79 ± 0.049
YFLRRQYILQIVSFIVN [YJL039C/NUP192]	1.2 ± 0.048	1.38 ± 0.068	1.31 ± 0.14	1.1 ± 0.055
VLSTFTAEFGKILAGLH [RPN10]	3.11 ± 0.14	3.44 ± 0.15	3.1 ± 0.14	3.05 ± 0.11
KELQYDNEQNLESDFVT [PRE2]	2.93 ± 0.092	3.16 ± 0.075	2.91 ± 0.075	3.02 ± 0.055
RQFVSNVRSVIRSSRSR [RPP1]	3.08 ± 0.063	3.08 ± 0.071	2.91 ± 0.064	3.09 ± 0.06
EEAAGTKMFEDRREKAE [SMC2]	3.4 ± 0.15	3.36 ± 0.18	3.26 ± 0.089	3.6 ± 0.11
EGQADIDMESDVEDDDK [POP7]	3.37 ± 0.095	3.18 ± 0.11	3.3 ± 0.07	3.27 ± 0.042
DRKNRAPPQRPRFNRDN [RPS26B]	1.87 ± 0.2	1.4 ± 0.15		3.04 ± 0.16
WNRLTISVTDTEVERAK [COR1]	3.19 ± 0.09	3.12 ± 0.076	3.08 ± 0.051	3.21 ± 0.085
EIIFLGAQIVSKQIFTH [ARP9]	1.22 ± 0.1	1.33 ± 0.075	1.14 ± 0.14	1.25 ± 0.036
EIKKLLATNSLVEEFML [DIS3]	2.32 ± 0.055	1.9 ± 0.052	2.54 ± 0.057	2.3 ± 0.048
GRVTFIPLNRLSLDSDV [SMC3]	2.65 ± 0.09	2.9 ± 0.053	2.85 ± 0.063	3.09 ± 0.058
VSSTIPRETIPFLHLRK [FAS2]	2.93 ± 0.27	2.35 ± 0.13	2.79 ± 0.16	2.6 ± 0.15
